From PMC7508256

Legend:
Assay in all cases: MST
[1] = biological target: T1, DF3 (YTHDF3) (UniProt Q7Z739 1-585)
T1 sequence: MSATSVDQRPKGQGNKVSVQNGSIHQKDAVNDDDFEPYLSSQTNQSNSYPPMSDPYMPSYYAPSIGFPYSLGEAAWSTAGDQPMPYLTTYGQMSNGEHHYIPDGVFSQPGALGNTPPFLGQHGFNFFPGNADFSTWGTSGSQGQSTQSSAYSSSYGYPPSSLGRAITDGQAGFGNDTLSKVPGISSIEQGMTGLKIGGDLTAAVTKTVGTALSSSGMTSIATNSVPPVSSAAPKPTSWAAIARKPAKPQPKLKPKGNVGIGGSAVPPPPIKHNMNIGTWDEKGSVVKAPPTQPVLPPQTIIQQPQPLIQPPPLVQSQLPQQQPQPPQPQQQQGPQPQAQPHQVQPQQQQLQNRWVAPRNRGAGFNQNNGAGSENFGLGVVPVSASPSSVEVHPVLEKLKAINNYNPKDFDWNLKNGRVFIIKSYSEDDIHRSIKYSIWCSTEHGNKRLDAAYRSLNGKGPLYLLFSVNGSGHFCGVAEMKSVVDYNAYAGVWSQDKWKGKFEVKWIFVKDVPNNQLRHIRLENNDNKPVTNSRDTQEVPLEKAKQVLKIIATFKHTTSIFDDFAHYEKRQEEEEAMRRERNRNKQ

[2] = biological target: T2, DF2 (YTHDF2) (UniProt Q9Y5A9 1-579)
T2 sequence: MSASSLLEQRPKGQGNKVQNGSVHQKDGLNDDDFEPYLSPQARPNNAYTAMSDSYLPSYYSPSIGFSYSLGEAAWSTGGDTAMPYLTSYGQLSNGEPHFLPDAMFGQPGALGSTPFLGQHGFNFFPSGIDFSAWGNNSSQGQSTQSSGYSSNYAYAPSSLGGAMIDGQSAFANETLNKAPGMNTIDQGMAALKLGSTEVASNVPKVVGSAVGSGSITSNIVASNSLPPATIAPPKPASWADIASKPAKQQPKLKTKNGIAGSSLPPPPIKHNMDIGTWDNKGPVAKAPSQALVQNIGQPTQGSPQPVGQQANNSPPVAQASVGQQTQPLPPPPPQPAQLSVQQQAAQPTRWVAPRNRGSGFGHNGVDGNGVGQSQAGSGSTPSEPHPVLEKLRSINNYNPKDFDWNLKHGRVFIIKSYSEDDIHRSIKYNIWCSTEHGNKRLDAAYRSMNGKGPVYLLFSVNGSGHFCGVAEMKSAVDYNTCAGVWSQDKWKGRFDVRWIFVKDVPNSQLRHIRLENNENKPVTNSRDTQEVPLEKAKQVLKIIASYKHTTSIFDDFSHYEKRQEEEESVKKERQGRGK

[3] = biological target: T3, DF1 (YTHDF1) (UniProt Q9BYJ9 1-559)
T3 sequence: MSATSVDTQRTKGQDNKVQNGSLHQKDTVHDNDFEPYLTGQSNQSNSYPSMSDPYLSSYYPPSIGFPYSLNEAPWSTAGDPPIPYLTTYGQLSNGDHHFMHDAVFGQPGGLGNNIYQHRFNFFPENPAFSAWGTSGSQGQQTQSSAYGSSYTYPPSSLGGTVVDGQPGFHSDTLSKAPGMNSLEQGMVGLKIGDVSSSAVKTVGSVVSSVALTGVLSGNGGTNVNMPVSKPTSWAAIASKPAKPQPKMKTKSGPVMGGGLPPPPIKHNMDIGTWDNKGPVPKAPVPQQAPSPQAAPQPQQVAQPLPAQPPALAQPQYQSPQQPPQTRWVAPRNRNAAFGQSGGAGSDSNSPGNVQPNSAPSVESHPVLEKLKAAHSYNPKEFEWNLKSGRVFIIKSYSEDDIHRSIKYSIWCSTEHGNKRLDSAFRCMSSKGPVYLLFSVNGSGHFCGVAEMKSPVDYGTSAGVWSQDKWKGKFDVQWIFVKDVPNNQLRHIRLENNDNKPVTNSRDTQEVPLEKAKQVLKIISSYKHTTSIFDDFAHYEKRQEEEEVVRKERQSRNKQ

Measured: binding result

UCCGGACUGU (ssRNA, N6-methyladenosine at position 6) [m6A-modified RNA]
binds: all assays above
